Results on 1 substance are retold here after patent publication US20020068706A1.

In one experiment the target is CDK4/cyclin D1 complex (UniProt P11802). Put plainly: cell-based or functional assay.
In a further experiment the target is cdc2/cyclin B complex (UniProt P06493). Put plainly: cell-based or functional assay.
cdc2/cyclin B complex, sequence (P06493 whole entry, one chain of several): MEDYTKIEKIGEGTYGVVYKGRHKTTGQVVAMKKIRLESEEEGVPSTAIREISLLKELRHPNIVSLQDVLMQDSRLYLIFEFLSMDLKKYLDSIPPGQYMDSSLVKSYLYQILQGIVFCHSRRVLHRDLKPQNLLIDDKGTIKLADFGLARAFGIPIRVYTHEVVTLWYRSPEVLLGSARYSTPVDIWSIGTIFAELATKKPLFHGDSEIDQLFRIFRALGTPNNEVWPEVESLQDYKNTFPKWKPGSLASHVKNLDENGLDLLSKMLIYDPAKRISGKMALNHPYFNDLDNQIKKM

CDK4/cyclin D1 complex, sequence (P11802 whole entry, chain 1 of 2): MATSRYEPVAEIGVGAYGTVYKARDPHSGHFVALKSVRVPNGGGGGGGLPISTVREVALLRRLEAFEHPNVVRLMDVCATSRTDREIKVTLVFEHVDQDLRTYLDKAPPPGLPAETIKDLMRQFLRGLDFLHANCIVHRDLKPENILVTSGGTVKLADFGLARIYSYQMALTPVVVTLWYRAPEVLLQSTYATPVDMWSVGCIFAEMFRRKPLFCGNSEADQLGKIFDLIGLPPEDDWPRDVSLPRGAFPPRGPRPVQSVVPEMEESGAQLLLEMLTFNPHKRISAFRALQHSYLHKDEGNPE
CDK4/cyclin D1 complex, sequence (P24385 whole entry, chain 2 of 2, further chain): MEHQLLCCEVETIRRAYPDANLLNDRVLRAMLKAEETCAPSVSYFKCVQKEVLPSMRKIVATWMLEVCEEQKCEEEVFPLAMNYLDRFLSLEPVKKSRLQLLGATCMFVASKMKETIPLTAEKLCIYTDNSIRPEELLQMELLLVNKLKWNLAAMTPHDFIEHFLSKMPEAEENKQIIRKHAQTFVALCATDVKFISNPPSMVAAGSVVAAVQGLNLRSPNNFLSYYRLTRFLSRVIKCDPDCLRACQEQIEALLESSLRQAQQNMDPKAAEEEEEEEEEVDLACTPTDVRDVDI

With p27 (from UniProt P46527 1-198), the IC50 of in vitro kinase assay (32P incorporation into Gst-Rb) in the experiment with CDK4/cyclin D1 complex stood at 63 nM; with cdc2/cyclin B complex it was 20 nM.
